Data on 3 molecules can be found in publication PMC11863153, “Mechanistic Insights Into Oxidative Response of Heat Shock Factor 1 Condensates” (JACS Au, 2025).

In data set [1] the target is T1, Heat shock factor 1 (Hsf1) wild-type (human), Q00613.
T1 chain: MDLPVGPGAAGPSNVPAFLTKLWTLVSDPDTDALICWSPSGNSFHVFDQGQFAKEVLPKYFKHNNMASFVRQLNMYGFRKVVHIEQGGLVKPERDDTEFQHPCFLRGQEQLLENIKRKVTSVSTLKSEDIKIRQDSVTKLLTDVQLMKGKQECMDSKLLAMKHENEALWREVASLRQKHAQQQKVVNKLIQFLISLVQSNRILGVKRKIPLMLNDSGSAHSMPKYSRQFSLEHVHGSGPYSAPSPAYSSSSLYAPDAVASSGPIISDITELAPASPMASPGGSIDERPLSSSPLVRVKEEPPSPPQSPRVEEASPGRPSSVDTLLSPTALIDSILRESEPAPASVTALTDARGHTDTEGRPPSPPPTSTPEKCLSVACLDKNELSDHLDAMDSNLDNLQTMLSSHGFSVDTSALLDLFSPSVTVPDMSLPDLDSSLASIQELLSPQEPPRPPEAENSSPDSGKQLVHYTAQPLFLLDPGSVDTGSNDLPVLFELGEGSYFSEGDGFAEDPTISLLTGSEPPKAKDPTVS
As to the kind of experiment: SEC-MALS; without reductant (oxidative conditions); 50 uM injected; 25 mM HEPES/KOH pH 7.2, 150 mM KCl; Bio SEC-5 1000 A column; oligomer size from the median molar mass. The note with it: remark: other sources report otherwise.

The target in data set [2] is T1, Heat shock factor 1 (Hsf1) wild-type …. As to the kind of experiment: SEC-MALS; with 10 mM DTT (+ Reductant); 50 uM injected; 25 mM HEPES/KOH pH 7.2, 150 mM KCl; Bio SEC-5 1000 A column; oligomer size from the median molar mass. The settings on record: remark: other sources report otherwise. In general terms: Size exclusion chromatography separates by hydrodynamic size, large species first.

Data set [3] deals with the molecule itself. As to the kind of experiment: SEC; analytical SEC at varying protein concentrations; change of elution volume with decreasing concentration.
Data set [4] deals with the molecule itself. As to the kind of experiment: SEC-MALS; without reductant (oxidative conditions); 50 uM injected; 25 mM HEPES/KOH pH 7.2, 150 mM KCl; Bio SEC-5 1000 A column; oligomer size from the median molar mass.

Substitutions are numbered along the chain they refer to. Numbers in names are those of the source. Where “and” joins values, the source holds several entries; their conditions need not be identical. Equal values may be shown once.

B1: Heat shock factor 1 (Hsf1) wild-type, Q00613 1-529 (natural protein)
chain: T1 chain
For the molecule B1, the stoichiometry N (usually the number of molecules, sites or subunits per partner or assembly) was 9 mer and < 16 mer in data set [1]; 7 mer in data set [2].

B2: Hsf1 C153S mutant (natural protein, human, UniProt Q00613 1-529, looked up)
chain: T1 chain with C153S
notes: Heat shock factor 1 (Hsf1), human, C153S in the leucine-zipper domain LZ1-3; source: E. coli BL21(DE3), purified (Ni-NTA, HRV3C cleavage, HiTrap Q anion exchange, Superdex 200 gel filtration); not shown: GB1, N-terminal, cleaved; His6, N-terminal, cleaved
With B2, the binding result in data set [3] was “binds”.

B3: Hsf1 CS5 mutant (C36S/C103S/C153S/C373S/C378S) (natural protein, human, UniProt Q00613 1-529, looked up)
chain: T1 chain with C36S, C103S, C153S, C373S, C378S
notes: Heat shock factor 1 (Hsf1), human, all five cysteines replaced with serine; also called Hsf1 CS mutant; source: E. coli BL21(DE3), purified (Ni-NTA, HRV3C cleavage, HiTrap Q anion exchange, Superdex 200 gel filtration); not shown: GB1, N-terminal, cleaved; His6, N-terminal, cleaved
In the case of B3, the “stoichiometry N” value in data set [4] was ~5 mer.
